US20260207704A1, “STAPLED PEPTIDES AND METHODS THEREOF” (priority 2022, published 2026)
*1 amine or outer side, *2 acyl side, *3 side chain or, on linkers, in order; H or OH if unused. Bridges are numbered along the chain shown (N, C = ends). Primed or numbered codes have the meaning given here. [ ]: non-standard residue; d: D form. PyrS2(6) = (S)-3-amino-1-((pent-4-en-1-yloxy)carbonyl)pyrrolidine-3-carboxylic acid, stapled with another olefin-containing amino acid residue through the olefin group, O=C(OCCCC=[*:3])N1CC[C@@](N[*:1])(C(=O)[*:2])C1; B5(4) = 2-amino-2-(pent-4-en-1-yl)hept-6-enoic acid, stapled through each of its two olefin groups with other olefin-containing amino acid residues, O=C(C(CCCC=[*:3])(CCCC=[*:4])N[*:1])[*:2]; PyrS2″ = (S)-3-amino-1-((pent-4-en-1-yloxy)carbonyl)pyrrolidine-3-carboxylic acid (olefin stapling residue), C=CCCCOC(=O)N1CC[C@@](N[*:1])(C(=O)[*:2])C1; PyrS2 = (S)-3-amino-1-((pent-4-en-1-yloxy)carbonyl)pyrrolidine-3-carboxylic acid, olefin staple residue, C=CCCCOC(=O)N1CC[C@@](N[*:1])(C(=O)[*:2])C1; PyrS2(5) = (S)-3-amino-1-((pent-4-en-1-yloxy)carbonyl)pyrrolidine-3-carboxylic acid, C=CCCCOC(=O)N1CC[C@@](N[*:1])(C(=O)[*:2])C1; B5″ = 2-amino-2-(pent-4-en-1-yl)hept-6-enoic acid (bis-olefin stapling residue), C=CCCCC(CCCC=C)(N[*:1])C(=O)[*:2]; B5(5) = 2-amino-2-(pent-4-en-1-yl)hept-6-enoic acid (two olefin arms), C=CCCCC(CCCC=C)(N[*:1])C(=O)[*:2]; Phe(3-COOH) = N[C@@H](Cc1cccc(C(=O)O)c1)C(=O)O; 2F3MeF = Cc1cccc(C[C@H](N[*:1])C(=O)[*:2])c1F; Bta = N[C@@H](Cc1csc2ccccc12)C(=O)O; αAllylPro = C=CC[C@@]1(C(=O)O)CCCN1; tBuAla = CC(C)(C)C[C@H](N)C(=O)O; 3Thi = N[C@@H](Cc1ccsc1)C(=O)O; TriAzLys(3) = not defined here; hSer = N[C@@H](CCO)C(=O)O; 2F3MeF(4) = Phe analogue; AsnR = not defined here; GlnR = not defined here; sAla = not defined here; B5 = not defined here; Aib = CC(C)(N)C(=O)O

What was measured:
[1] = target: T1, beta-catenin/TCF4 (Homo sapiens, UniProt P35222); assay: Nano-BRET target engagement assay (HEK293 cells); assay type: cell-based; details: read-out: NanoBRET Abs IC50
T1 construct: expressed in transfected cells; host or cells: HEK293 cells
T1 sequence (P35222 1-781): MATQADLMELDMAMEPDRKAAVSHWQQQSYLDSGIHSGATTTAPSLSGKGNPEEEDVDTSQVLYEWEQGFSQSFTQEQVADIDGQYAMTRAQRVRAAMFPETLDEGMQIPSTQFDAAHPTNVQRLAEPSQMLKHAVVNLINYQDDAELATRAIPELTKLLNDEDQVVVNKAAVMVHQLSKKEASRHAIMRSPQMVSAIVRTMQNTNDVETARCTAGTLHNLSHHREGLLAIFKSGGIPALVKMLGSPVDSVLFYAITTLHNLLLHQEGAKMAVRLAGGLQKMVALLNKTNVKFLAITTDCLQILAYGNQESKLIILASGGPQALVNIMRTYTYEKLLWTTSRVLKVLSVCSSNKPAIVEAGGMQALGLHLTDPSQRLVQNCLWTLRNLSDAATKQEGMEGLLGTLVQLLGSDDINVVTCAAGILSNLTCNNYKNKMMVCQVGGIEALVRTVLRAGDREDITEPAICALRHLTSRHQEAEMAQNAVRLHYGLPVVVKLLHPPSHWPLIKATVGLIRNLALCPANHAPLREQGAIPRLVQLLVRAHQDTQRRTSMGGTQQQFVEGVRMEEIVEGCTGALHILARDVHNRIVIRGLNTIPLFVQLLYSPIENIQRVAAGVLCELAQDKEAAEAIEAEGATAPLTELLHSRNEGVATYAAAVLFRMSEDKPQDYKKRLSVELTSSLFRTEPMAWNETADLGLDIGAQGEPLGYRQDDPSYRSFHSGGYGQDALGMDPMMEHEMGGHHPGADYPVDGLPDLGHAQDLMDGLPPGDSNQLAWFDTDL
Method: In some embodiments, capabilities of provided technologies, e.g., binding to beta-catenin and/or disrupt its interactions (or lack thereof) with various partners were assessed and confirmed in cells, e.g., using a NanoBRET based assay in HEK293 cells.

[2] = target: T2, beta-catenin (Homo sapiens, UniProt P35222); assay: fluorescence polarization binding to beta-catenin; details: read-out: beta-Catenin FP IC50
T2 sequence (P35222 1-781): T1 sequence (P35222 1-781)
Method: In some embodiments, an EC50 is measured by fluorescence polarization as described in the Examples.

[3] = mouse plasma pharmacokinetics; assay type: in vivo; details: single intraperitoneal (IP) dose at 100 mg/kg
Method: (B): Mouse plasma pharmacokinetics. […] Mouse single dose IP, 50 mg/kg.
Concentrations of agents in biological samples were measured by LC-MS/MS (Triple Quad 6500+). […] 8 uL of plasma or tissue lysate was used for LC method with mobile phase A (1% formic acid (FA, LS118-4, Fisher Scientific) in H2O) and mobile phase B (0.1% FA in ACN), 0.6 ml/min flow rate in Waters ACQUITY UPLC BEH C18 2.1*50 mm, 1.7 μm column. […] MS was conducted by electrospray ionization and multi reaction monitor scans. PK parameters such as plasma maximum concentration (Cmax), and AUC were analyzed by noncompartmental model 200 of Phoenix WinNonlin 8.3, using the linear/log trapezoidal method.

[4] = tested on: beta-catenin/TCF; assay type: cell-based; details: COLO320DM cells
[5] = tested on: DLD1 reporter; assay: reporter assay (DLD1 reporter assay); assay type: cell-based; details: read-out: DLD1 4% Abs IC50; DLD1 4%
[6] = tested on: COLO320DM cells; assay: COLO320DM proliferation assay; assay type: cell-based, human; details: read-out: COLO320DM Proliferation Abs IC50
Method: Various technologies can be utilized to assess technologies of the present disclosure. For example, in some embodiments, solubility, LogD, interactions with targets, etc. of various agents such as stapled peptides were assessed using technologies described in WO 2022/261257 (e.g., those in its Examples). In some embodiments, solubility, shake flask LogD, and binding to beta-catenin were assessed. In some embodiments, an assay for assessing interactions, e.g., with beta-catenin, was fluorescence polarization as described in WO 2022/261257. In some embodiments, an assay was Nano-BRET target engagement assay that assessed beta-catenin/TCF4 engagement as described in WO 2022/261257. In some embodiments, an assay was a reporter assay as reported in Example 4 of WO 2022/261257. In some embodiments, an assay was a COLO320DM proliferation assay as reported in Example 4 of WO 2022/261257.
Among other things, provided technologies can inhibit proliferation of various cells including various cancer cells. In some embodiments, provided technologies modulate WNT specific transcription. In some embodiments, provided technologies induce cell cycle arrest. In some embodiments, provided technologies induce G1 cell cycle arrest. In some embodiments, provided technologies increased proportion of cells in G1 phase of cell cycle. As confirmed in FIG. 3, provided technologies can inhibit proliferation of COLO320DM, which is a colorectal cell line comprising various mutations such as APC, TP53, etc., modulate WNT specific transcription such as of AXIN2 and CXCL12, and induce G1 cell cycle arrest. In some embodiments, it was confirmed that provided technologies can reduce proportion of cells in S phase of cell cycle.

[7] = target: beta-catenin (human); assay: fluorescence polarization; bin >750 nM
[8] = target: beta-catenin (human); assay: cell-based or functional assay
[9] = target: T3, beta-catenin (human, UniProt B6V8E6 146-665 (dog entry), limits assumed); assay: cell-based or functional assay
T3 sequence: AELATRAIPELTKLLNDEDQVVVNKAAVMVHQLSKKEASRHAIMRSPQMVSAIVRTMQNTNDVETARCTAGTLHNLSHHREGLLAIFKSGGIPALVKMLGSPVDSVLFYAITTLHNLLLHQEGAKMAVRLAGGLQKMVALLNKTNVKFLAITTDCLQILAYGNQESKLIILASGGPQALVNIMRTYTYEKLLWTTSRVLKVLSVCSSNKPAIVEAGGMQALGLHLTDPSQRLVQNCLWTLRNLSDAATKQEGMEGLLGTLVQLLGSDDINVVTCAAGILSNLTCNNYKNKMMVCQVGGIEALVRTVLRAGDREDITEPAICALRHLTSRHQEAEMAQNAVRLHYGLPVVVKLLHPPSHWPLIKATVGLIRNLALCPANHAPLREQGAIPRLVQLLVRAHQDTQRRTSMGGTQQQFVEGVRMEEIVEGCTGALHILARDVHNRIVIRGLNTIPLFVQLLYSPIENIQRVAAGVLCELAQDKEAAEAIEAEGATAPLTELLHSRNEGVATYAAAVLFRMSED

For “Ac-PL3-Asp-Npg-B5-Asp-4F3Me2COOHF-Aib-Ala-Phe-Lys*3-PyrS2-2F3MeF-BztA-GlnR*3-Ala-NH2 [I-205]”, the IC50 [1] was 3000 to 10000 nM and the IC50 [2] was less than 50 nM.

For `CC(=O)N1CCC[C@]12CC=CCCCC1(CCCC=CCCCOC(=O)N3CC[C@@]4(C3)NC(=O)[C@H](CCCCNC(=O)CC[C@@H](C(=O)N[C@@H](C)C(N)=O)NC(=O)[C@H](Cc3csc5ccccc35)NC(=O)[C@H](Cc3ccsc3)NC4=O)NC(=O)[C@H](Cc3ccccc3)NC(=O)[C@H](C)NC(=O)C(C)(C)NC(=O)[C@H](Cc3cccc(C(=O)O)c3)NC(=O)[C@H](CCC(=O)O)NC1=O)NC(=O)[C@H](CC(C)(C)C)NC(=O)[C@H](CCC(=O)O)NC2=O` (relative stereo) [I-470, Ac-PL3-Glu-Npg-B5-Glu-3COOHF-Aib-Ala-Phe-Lys*3-PyrS2-3Thi-BztA-GlnR*3-Ala-NH2], the “plasma AUC” value [3] was “comparable plasma AUC” and the “effect on expression level of AXIN2” value [4] was “no or very little or non-significant effect”.

Work on `CC(=O)N1CCC[C@]12CC=CCCCC1(CCCC=CCCCOC(=O)N3CC[C@@]4(C3)NC(=O)[C@H](CCCCn3cc(nn3)COC[C@@H](C(=O)N[C@@H](C)C(N)=O)NC(=O)[C@H](Cc3csc5ccccc35)NC(=O)[C@H](Cc3ccsc3)NC4=O)NC(=O)[C@H](Cc3ccccc3)NC(=O)[C@H](C)NC(=O)C(C)(C)NC(=O)[C@H](Cc3cccc(C(=O)O)c3)NC(=O)[C@H](CC(=O)O)NC1=O)NC(=O)[C@H](CC(C)(C)C)NC(=O)[C@H](CC(=O)O)NC2=O` (relative stereo) [I-262, Ac-PL3-Asp-Npg-B5-Asp-3COOHF-Aib-Ala-Phe-TriAzLys*3-PyrS2-3Thi-BztA-sCH2S*3-Ala-NH2] yielded an IC50 [5] of no more than 1000 nM and an IC50 [6] of no more than 10000 nM.

B1: I-26 (peptide)
peptide: Ac-[αAllylPro]D[tBuAla][B5(4)]DD[sAla]AF[TriAzLys(3)][PyrS2(6)][3Thi][Bta]Q-NH2
modifications: triazole 7-10; not fully specified (bridges); printed as Ac-PL3-Asp-Npg-B5-Asp-Asp-sAla*3-Ala-Phe-TriAzLys*3-PyrS2-3Thi-BztA-Gln-NH2; reading uncertain
B1 gave an IC50 [7] of less than 1000 nM.

B2: I-133 (peptide)
peptide: Ac-[αAllylPro]D[tBuAla][B5]D[Phe(3-COOH)][GlnR]AFL[PyrS2][2F3MeF][Bta][GlnR](39N2spiroundecane)A-NH2
modifications: staple 1-4, 4-11 (inferred); not fully specified; printed as Ac-PL3-Asp-Npg-B5-Asp-3COOHF-GlnR-Ala-Phe-Leu-PyrS2-2F3MeF-BztA-[39N2spiroundecane]GlnR-Ala-NH2; reading uncertain; also: staple C=C reduced to CH2-CH2
Molecule B2 has an IC50 [7] of less than 1000 nM and a NanoBRET Abs IC50 [8] greater than 10000 nM.

B3: I-35 (peptide)
peptide: Ac-[αAllylPro]D[tBuAla][B5(5)]D[Phe(3-COOH)]AAF[AsnR][PyrS2(5)][3Thi][Bta]K-NH2
modifications: bridge 10-14; not fully specified (bridges); printed as Ac-PL3-Asp-Npg-B5-Asp-3COOHF-Ala-Ala-Phe-AsnR*3-PyrS2-3Thi-BztA-Lys*3-NH2; reading uncertain
B3 showed an IC50 [7] of less than 1000 nM.

B4: I-44 (peptide)
peptide: Ac-[αAllylPro]D[tBuAla][B5(5)]D[Phe(3-COOH)]AAF[AsnR][PyrS2(5)][3Thi][Bta]KA-NH2
modifications: bridge 10-14; reading uncertain; also: PL3/B5/PyrS2 staple links not placed, printed as Ac-PL3-Asp-Npg-B5-Asp-3COOHF-Ala-Ala-Phe-AsnR*3-PyrS2-3Thi-BztA-Lys*3-Ala-NH2
B4 gave an IC50 [7] of less than 1000 nM.

B5: I-147 (peptide)
peptide: Ac-[αAllylPro][hSer][tBuAla][B5″]D[Phe(3-COOH)][Aib]AFK[PyrS2″][2F3MeF][Bta][GlnR]LS-NH2
modifications: bridge 10-14; reading uncertain; also: PL3-B5 and PyrS2 links not placed, printed as Ac-PL3-Hse-Npg-B5-Asp-3COOHF-Aib-Ala-Phe-Lys*3-PyrS2-2F3MeF-BztA-GlnR*3-Leu-Ser-NH2
B5 showed an IC50 [7] of less than 1000 nM.

B6: Peptide A (peptide)
peptide: Ac-[αAllylPro]D[tBuAla][B5]D[Phe(3-COOH)]AAFL[PyrS2][2F3MeF][Bta]Q-NH2
modifications: staple 1-4, 4-11; not fully specified; reading uncertain
In the case of B6, the “AXIN2 expression IC50, COLO320DM cells” value [9] is reported as 1400 nM, the “AXIN2 expression IC50, DLD1 cells” value [9] is reported as 9300 nM and the “SP5 expression IC50, DLD1 cells” value [9] is reported as 9000 nM.

B7: I-28 (peptide)
peptide: Ac-[αAllylPro]D[tBuAla][B5(4)]D[Phe(3-COOH)][sAla]AF[TriAzLys(3)][PyrS2(6)][2F3MeF(4)][Bta]Q-NH2
modifications: triazole 7-10; not fully specified (bridges); printed as Ac-PL3-Asp-Npg-B5-Asp-3COOHF-sAla*3-Ala-Phe-TriAzLys*3-PyrS2-2F3MeF-BztA-Gln-NH2; reading uncertain
With B7 the IC50 [7] was less than 1000 nM.
